Data: the supplement of paper PMC11246515
± gives the standard deviation of the averaged measurements.

Test: total protein half-life in vivo (active degradation + dilution); higher = more stable protein
[1] = E. coli NCM3722 delta-clpP delta-lon delta-hslV, growth: N-lim chemostat, doubling time 6 h
[2] = E. coli NCM3722 delta-clpP, growth: N-lim chemostat, doubling time 6 h
[3] = E. coli NCM3722 delta-hslV, growth: N-lim chemostat, doubling time 6 h
[4] = E. coli NCM3722 delta-lon, growth: N-lim chemostat, doubling time 6 h
[5] = E. coli NCM3722 delta-smpB, growth: N-lim chemostat, doubling time 6 h
[6] = wild type E. coli NCM3722, growth: C-lim chemostat, doubling time 3 h
[7] = wild type E. coli NCM3722, growth: C-lim chemostat, doubling time 6 h
[8] = wild type E. coli NCM3722, growth: C-lim chemostat, doubling time 12 h
[9] = wild type E. coli NCM3722, growth: N-lim chemostat, doubling time 12 h
[10] = wild type E. coli NCM3722, growth: P-lim chemostat, doubling time 6 h
[11] = wild type E. coli NCM3722, growth: N-lim chemostat, doubling time 6 h
[12] = wild type E. coli NCM3722, growth: P-lim chemostat, doubling time 12 h

Sequence | total protein half-life in vivo [1] [h] | total protein half-life in vivo [2] [h] | total protein half-life in vivo [3] [h] | total protein half-life in vivo [4] [h] | total protein half-life in vivo [5] [h] | total protein half-life in vivo [6] [h] | total protein half-life in vivo [7] [h] | total protein half-life in vivo [8] [h] | total protein half-life in vivo [9] [h] | total protein half-life in vivo [10] [h] | total protein half-life in vivo [11] [h] | total protein half-life in vivo [12] [h]
MDNRGEFLNNVAQALGRPLRLEPQAEDAPLNNYANERLTQLNQQQRCDAFIQFASDVMLTRCELTSEAKAAEAAIRLCKELGDQSVVISGDTRLEELGISERLQQECNAVVWDPAKGAENISQAEQAKVGVVYAEYGLTESGGVVLFSAAERGRSLSLLPEYSLFILRKSTILPRVAQLAEKLHQKAQAGERMPSCINIISGPSSTADIELIKVVGVHGPVKAVYLIIEDC | 4.84 ± 0.23 | 1.46 | 1.64 | 2.67 | 1.78 ± 0.043 | 2.33 ± 0.14 | 3.75 ± 0.5 | 5.23 ± 0.45 | 2.49 | 2.13 |  | 
MDQFECINVADAHQKLQEKEAVLVDIRDPQSFAMGHAVQAFHLTNDTLGAFMRDNDFDTPVMVMCYHGNSSKGAAQYLLQQGYDVVYSIDGGFEAWQRQFPAEVAYGA [P0A6V5] |  |  |  |  |  |  |  |  |  |  | 1.91 | 
MDQVVIFKQIFDKVRNDLNYQWFYSELKRHNVSHYIYYLATENVHIVLKNDNTVLLKGLKNIVSVKFSKDRHLIETTSNKLKSREITFQEYRRNLAKAGVFRWVTNIHEQKRYYYTFDNSLLFTESIQKTTQILPR |  |  |  |  |  |  | 4.33 |  |  |  |  | 5.25
MDSFPAIEIDKVKAWDFRLANINTSECLNVAYGVDANYLDGVGVSITSIVLNNRHINLDFYIIADVYNDGFFQKIAKLAEQNQLRITLYRINTDKLQCLPCTQVWSRAMYFRLFAFQLLGLTLDRLLYLDADVVCKGDISQLLHLGLNGAVAAVVKDVEPMQEKAVSRLSDPELLGQYFNSGVVYLDLKKWADAKLTEKALSILMSKDNVYKYPDQDVMNVLLKGMTLFLPREYNTIYTIKSELKDKTHQNYKKLITESTLLIHYTGATKPWHKWAIYPSVKYYKIALENSPWKDDSPRDAKSIIEFKKRYKHLLVQHHYISGIIAGVCYLCRKYYRK | 5.91 ± 0.13 | 5.65 ± 0.22 | 5.85 ± 1.1 | 4.71 ± 0.095 | 5.17 ± 0.11 | 2.93 ± 0.14 | 5.19 ± 0.48 | 9.31 ± 1.8 | 10.3 ± 2.3 | 5.29 ± 0.38 | 6.04 ± 1.2 | 9.86 ± 0.11
MDTELLKTFLEVSRTRHFGRAAESLYLTQSAVSFRIRQLENQLGVNLFTRHRNNIRLTAAGEKLLPYAETLMSTWQAARKEVAHTSRHNEFSIGASASLWECMLNQWLGRLYQNQDAHTGLQFEARIAQRQSLVKQLHERQLDLLITTEAPKMDEFSSQLLGYFTLALYTSAPSKLKGDLNYLRLEWGPDFQQHEAGLIGADEVPILTTSSAELAQQQIAMLNGCTWLPVSWARKKGGLHTVVDSTTLSRPLYAIWLQNSDKNALIRDLLKINVLDEVY [P0A8R9] | 5.38 ± 0.37 | 4.82 ± 0.081 | 4.553 ± 0.02 |  | 4.1 ± 0.12 | 3.05 ± 0.072 | 5.676 ± 0.025 | 9.53 ± 0.73 | 7.65 ± 0.25 | 6.13 ± 0.24 | 4.72 ± 0.46 | 11.7 ± 2
MDVRQSIHSAHAKTLDTQGLRNEFLVEKVFVADEYTMVYSHIDRIIVGGIMPITKTVSVGGEVGKQLGVSYFLERRELGVINIGGAGTITVDGQCYEIGHRDALYVGKGAKEVVFASIDTGTPAKFYYNCAPAHTTYPTKKVTPDEVSPVTLGDNLTSNRRTINKYFVPDVLETCQLSMGLTELAPGNLWNTMPCHTHERRMEVYFYFNMDDDACVFHMMGQPQETRHIVMHNEQAVISPSWSIHSGVGTKAYTFIWGMVGENQVFDDMDHVAVKDLR | 5.44 ± 1.1 | 3.55 | 3.6 ± 0.5 | 3.28 ± 0.7 | 3.71 ± 0.51 | 3.43 ± 0.61 | 6.02 ± 0.23 | 10.2 ± 0.68 | 5.64 ± 0.57 | 5.56 | 4.18 | 11.6 ± 0.6
MDVSYLLDSLNDKQREAVAAPRSNLLVLAGAGSGKTRVLVHRIAWLMSVENCSPYSIMAVTFTNKAAAEMRHRIGQLMGTSQGGMWVGTFHGLAHRLLRAHHMDANLPQDFQILDSEDQLRLLKRLIKAMNLDEKQWPPRQAMWYINSQKDEGLRPHHIQSYGNPVEQTWQKVYQAYQEACDRAGLVDFAELLLRAHELWLNKPHILQHYRERFTNILVDEFQDTNNIQYAWIRLLAGDTGKVMIVGDDDQSIYGWRGAQVENIQRFLNDFPGAETIRLEQNYRSTSNILSAANALIENNNGRLGKKLWTDGADGEPISLYCAFNELDEARFVVNRIKTWQDNGGALAECAILYRSNAQSRVLEEALLQASMPYRIYGGMRFFERQEIKDALSYLRLIANRNDDAAFERVVNTPTRGIGDRTLDVVRQTSRDRQLTLWQACRELLQEKALAGRAASALQRFMELIDALAQETADMPLHVQTDRVIKDSGLRTMYEQEKGEKGQTRIENLEELVTATRQFSYNEEDEDLMPLQAFLSHAALEAGEGQADTWQDAVQLMTLHSAKGLEFPQVFIVGMEEGMFPSQMSLDEGGRLEEERRLAYVGVTRAMQKLTLTYAETRRLYGKEVYHRPSRFIGELPEECVEEVRLRATVSRPVSHQRMGTPMVENDSGYKLGQRVRHAKFGEGTIVNMEGSGEHSRLQVAFQGQGIKWLVAAYARLESV | 6.25 ± 0.18 | 5.48 ± 0.56 | 3.81 ± 0.25 | 4.29 ± 0.12 | 3.45 ± 0.13 | 2.96 ± 0.033 | 4.72 ± 0.42 | 8.03 ± 1.1 | 5.67 ± 0.15 | 4.83 ± 0.25 | 3.781 ± 0.029 | 7.8 ± 0.18
MEALGMIETRGLVALIEASDAMVKAARVKLVGVKQIGGGLCTAMVRGDVAACKAATDAGAAAAQRIGELVSVHVIPRPHGDLEEVFPIGLKGDSSNL [P0ABF4] | 4.35 ± 0.68 | 7.77 | 4.24 ± 0.36 | 4.82 ± 0.61 | 4.98 ± 0.22 | 2.59 ± 0.7 | 5.83 ± 0.41 | 11.5 ± 1.5 | 7.48 ± 0.57 | 5.28 ± 0.062 | 4.8 ± 0.3 | 12.1 ± 1.1
